The record followed here is patent US20260201038A1 (CELLABMED, published 2026).

The target in assay [1] is T1, ….
T1 sequence (peptide): EVQVPEDPVVALVGT
The assay is described as follows: peptide microarray, 15-mers of human 4Ig B7-H3; panel Ig-like-V type 1.

A further assay has as its target T2, B7-DC (UniProt Q9BQ51 20-219, limits assumed).
T2 sequence (looked up): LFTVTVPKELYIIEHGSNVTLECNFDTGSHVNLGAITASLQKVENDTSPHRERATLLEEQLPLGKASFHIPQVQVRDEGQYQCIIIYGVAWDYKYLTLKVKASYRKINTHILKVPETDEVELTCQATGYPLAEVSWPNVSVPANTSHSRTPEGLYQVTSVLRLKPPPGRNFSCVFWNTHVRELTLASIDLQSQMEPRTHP
Description: indirect ELISA, B7-DC coated at 1 ug/mL, absorbance at 450 nm. As to the method: [The procedure below names another target; the source lists this target under the same test.] The binding ability of 2D IgG prepared in Example 2 for recombinant B7-H3 protein was investigated by indirect ELISA. For indirect ELISA, recombinant human 4lg B7-H3, recombinant human 2lg B7-H3 and recombinant mouse B7-H3 were diluted respectively to 1 μg/mL in 50 μL of PBS and adsorbed overnight onto a 96-well immunoplate (Corning, USA) by storing at 4° C. After reaction with a buffer solution containing 3% bovine serum albumin at room temperature for 1 hour, followed by washing 3 times with a buffer solution containing 0.5% Tween 20, each well was treated with 50 μL of the antibodies diluted serially (0.0001, 0.0003, 0.001, 0.003, 0.01, 0.03, 0.1, 0.3, 1, 3 and 10 nM). For antigen-antibody binding, the mixture was reacted at room temperature for 2 hours, and then washed 3 times with a buffer solution containing 0.5% Tween 20. After treating each well with 50 μL of anti-human immunoglobulin Fc-HRP antibodies (Jackson Immunoresearch, USA) diluted to 1:3,000, reaction was conducted at room temperature for 1 hour. […] As a result of measuring absorbance at 450 nm using a spectrophotometer (Biotek, USA), it was confirmed that 2D IgG binds to B7-H3, and the binding ability was in the order of 4lg B7-H3, 2lg B7-H3 and mouse B7-H3 (FIG. 2a). […]
On the technique in general: In an ELISA, binding on a coated surface is turned into a signal by an enzyme label.

The target of assay [2] is B7-H3 on human cancer cells (human) (UniProt Q5ZPR3). The assay is described as follows: flow cytometry on HepG2 liver cancer cells; control (secondary antibody only) < 10%. (Flow cytometry measures light scatter and fluorescence of single cells or particles in a stream.)
For another assay, the target named is T3, TPQRSPTGAVEVQVP
T3 construct: 15-mer of human 4Ig B7-H3 on the peptide microarray, panel Ig-like-V type 2
T3 peptide: TPQRSPTGAVEVQVP
Description: peptide microarray, 15-mers of human 4Ig B7-H3; panel Ig-like-V type 2. The procedure:
(§1) It was confirmed that G2D IgG has linear epitopes since G2D was verified to recognize 4lg B7-H3 through western blot (FIG. 10a). Therefore, linear epitope mapping was conducted by Pepperprint GmbH (Germany). After preparing a peptide microarray from the 15 4lg B7-H3 amino acids with 14-amino acid overlaps, the antibodies binding to peptides were identified using secondary antibodies (FIG. 10b). As a result, it was confirmed that G2D IgG binds to a peptide having a sequence of EVQVP (FIG. 10c). EVQVP is located in the Ig-like V-type1 and Ig-like V-type2 domains of 4lg B7-H3 (FIGS. 10d and 10e). When the epitopes of the control antibody enoblituzumab were identified by the same method, it was confirmed that the epitopes include the sequence of GYPEAE (FIG. 10b), and GYPEAE is located in the Ig-like C2-type1 and Ig-like C2-type2 domains of 4lg B7-H3 (FIGS. 10d and 10e). As a result, it was confirmed that G2D IgG and the control antibody enoblituzumab have different epitopes.

The target of a further assay is T4, PQRSPTGAVEVQVPE
T4 construct: 15-mer of human 4Ig B7-H3 on the peptide microarray, panel Ig-like-V type 2
T4 peptide: PQRSPTGAVEVQVPE
The assay is described as above. As to the method: as §1

The target of the next assay is T5, QRSPTGAVEVQVPED
T5 construct: 15-mer of human 4Ig B7-H3 on the peptide microarray, panel Ig-like-V type 2
T5 peptide: QRSPTGAVEVQVPED
The description is as above. As to the method:
as §1

The target in the next assay is T6, RSPTGAVEVQVPEDP
T6 construct: 15-mer of human 4Ig B7-H3 on the peptide microarray, panel Ig-like-V type 2
T6 peptide: RSPTGAVEVQVPEDP
Described as above. As to the method:
as §1

The target of another assay is T7, SPTGAVEVQVPEDPV
T7 construct: 15-mer of human 4Ig B7-H3 on the peptide microarray, panel Ig-like-V type 2
T7 peptide: SPTGAVEVQVPEDPV
Described as above. As to the method: as §1

For another assay, the target named is T8, PTGAVEVQVPEDPVV
T8 construct: 15-mer of human 4Ig B7-H3 on the peptide microarray, panel Ig-like-V type 2
T8 peptide: PTGAVEVQVPEDPVV
The assay is described as above. As to the method:
as §1

For a further assay, the target named is T9, TGAVEVQVPEDPVVA
T9 construct: 15-mer of human 4Ig B7-H3 on the peptide microarray, panel Ig-like-V type 2
T9 peptide: TGAVEVQVPEDPVVA
The assay is described as above. As to the method: as §1

Another assay has as its target T10, GAVEVQVPEDPVVAL
T10 construct: 15-mer of human 4Ig B7-H3 on the peptide microarray, panel Ig-like-V type 2
T10 peptide: GAVEVQVPEDPVVAL
The assay is described as above. The procedure: as §1

The target in another assay is T11, VEVQVPEDPVVALVG
T11 construct: 15-mer of human 4Ig B7-H3 on the peptide microarray, panel Ig-like-V type 2
T11 peptide: VEVQVPEDPVVALVG
The assay is described as above. The procedure: as §1

For assay [3], the target named is B7-H3 on human cancer cells (human) (UniProt Q5ZPR3). Description: flow cytometry on A2780 ovarian cancer cells; control (secondary antibody only) < 5%.
For assay [4] the target is unchanged. Description: flow cytometry on Panc-1 pancreatic cancer cells; control (secondary antibody only) < 15%.

B1: G2D IgG (antibody, V domains shown)
VH: QVQLVESGGGLVQPGGSLRLSCSASGFDFSSYPMVWVRQAPGKGLEYVSSINSGGSWTGYGAAVKGRATISRDNSKNTLYLQMNSLRAEDTATYYCARAYGAATIDAWGQGTTVTVSS
VL: SYELTQPPSVSVSPGQTARITCSGGSIGYGWYQQKAPGQAPVTVIYYNDRRPSGIPERFSGSKSGTTNTLTISGVQAEDEADYYCGSADSSSTYTGIFGGGTKLTVL
notes: The back-substitutions (L46T, S66K, V71N in VL); also called humanized 2D; G2D antibody
For the molecule B1, the fluorescence intensity of the peptide spot in assay [1] amounted to 16; with TPQRSPTGAVEVQVP it was 89.3; with PQRSPTGAVEVQVPE, 92.3; in the assay with QRSPTGAVEVQVPED, 80; with RSPTGAVEVQVPEDP, 120; with SPTGAVEVQVPEDPV, 94.8. Moreover, the “fluorescence intensity of the peptide spot” value with PTGAVEVQVPEDPVV is 142; in the assay with TGAVEVQVPEDPVVA, 84.5; in the assay with GAVEVQVPEDPVVAL it was 95; with VEVQVPEDPVVALVG, 92.5. Also, the binding result with B7-DC is “no binding (tested: 10 nM)”. Further, the % of cells in the positive gate in assay [2], in assay [3] and in [4] was greater than 95% throughout.
